Laboratory results as given in patent US20250161474A1 (SICHUAN KELUN BIOTECH BIOPHARMACEUTICAL, published 2025).

B1: ADC 49B-A-05 (bispecific antibody, human IgG1, kappa, L234A L235A)
light: DIQMTQSPSSLSASVGDRVTITCKSSQSLLYTSSQKNYLAWYQQKPGKAPKLLIYWASTRESGVPSRFSGSGSGTDFTLTISSLQPEDFATYYCQQYYAYPWTFGQGTKVEIKRTVAAPSVFIFPPSDEQLKSGTASVVCLLNNFYPREAKVQWKVDNALQSGNSQESVTEQDSKDSTYSLSSTLTLSKADYEKHKVYACEVTHQGLSSPVTKSFNRGEC
heavy: not shown
chain: AIQLTQSPSSLSASVGDRVTITCRASQDISSALVWYQQKPGKAPKLLIYDASSLESGVPSRFSGSESGTDFTLTISSLQPEDFATYYCQQFNSYPLTFGGGTKVEIKGGGGSGGGGSGGGGSQVQLVESGGGVVQPGRSLRLSCAASGFTFSTYGMHWVRQAPGKGLEWVAVIWDDGSYKYYGDSVKGRFTISRDNSKNTLYLQMNSLRAEDTAVYYCARDGITMVRGVMKDYFDYWGQGTLVTVSSGGGGDKTHTCPPCPAPEAAGGPSVFLFPPKPKDTLMISRTPEVTCVVVDVSHEDPEVKFNWYVDGVEVHNAKTKPREEQYNSTYRVVSVLTVLHQDWLNGKEYKCKVSNKALAAPIEKTISKAKGQPREPQVCTLPPSRDELTKNQVSLSCAVKGFYPSDIAVEWESNGQPENNYKTTPPVLDSDGSFFLVSKLTVDKSRWQQGNVFSCSVMHEALHNHYTQKSLSLSPGK
modifications: linker-payload A-05 on reduced Cys sulfhydryls (sites not given); DAR of the whole ADC approximately 6
B2: ADC 49B-B-01 (bispecific antibody, human IgG1, kappa, L234A L235A)
light: B1 light
heavy: not shown
chain: B1 chain
modifications: linker-payload B-01 on reduced Cys sulfhydryls (sites not given); DAR of the whole ADC approximately 6
B3: BsAb 49B (bispecific antibody, human IgG1, kappa, L234A L235A)
light: B1 light
heavy: not shown
chain: B1 chain
notes: Fab-scFv-Fc (KIH) format; anti-c-MET Fab, anti-EGFR scFv; also called BsB 49B; bispecific antibody 49B
B4: ADC 49B-A-14 (bispecific antibody, human IgG1, kappa, L234A L235A)
light: B1 light
heavy: not shown
chain: B1 chain
modifications: linker-payload A-14 on reduced Cys sulfhydryls (sites not given); DAR of the whole ADC approximately 6
B5: ADC 10B-A-05 (bispecific antibody, human IgG1, kappa)
light: not shown
heavy: not shown
chain: DIQMTQSPSSLSASVGDRVTITCKSSQSLLYTSSQKNYLAWYQQKPGKAPKLLIYWASTRESGVPSRFSGSGSGTDFTLTISSLQPEDFATYYCQQYYAYPWTFGQGTKVEIKGGGGSGGGGSGGGGSEVQLVESGGGLVQPGGSLRLSCAASGYTFTSYWLHWVRQAPGKGLEWVGMIDPSNSDTRFNPNFKDRFTISADTSKNTAYLQMNSLRAEDTAVYYCATYRSYVTPLDYWGQGTLVTVSSGGGGDKTHTCPPCPAPELLGGPSVFLFPPKPKDTLMISRTPEVTCVVVDVSHEDPEVKFNWYVDGVEVHNAKTKPREEQYNSTYRVVSVLTVLHQDWLNGKEYKCKVSNKALPAPIEKTISKAKGQPREPQVCTLPPSREEMTKNQVSLSCAVKGFYPSDIAVEWESNGQPENNYKTTPPVLDSDGSFFLVSKLTVDKSRWQQGNVFSCSVMHEALHNHYTQKSLSLSPGK
modifications: linker-payload A-05 on reduced Cys sulfhydryls (sites not given); DAR of the whole ADC approximately 6
B6: ADC 41B-A-05 (bispecific antibody, human IgG1, kappa, L234A L235A)
light: not shown
heavy: not shown
chain: DIQMTQSPSSLSASVGDRVTITCKSSQSLLYTSSQKNYLAWYQQKPGKAPKLLIYWASTRESGVPSRFSGSGSGTDFTLTISSLQPEDFATYYCQQYYAYPWTFGCGTKVEIKRTVAAPSVFIFPPSDEQLKSGTASVVCLLNNFYPREAKVQWKVDNALQSGNSQESVTEQDSKDSTYSLSSTLTLSKADYEKHKVYACEVTHQGLSSPVTKSFNRGECGGGGSGGGGSGGGGSGGGGSGGGGSGGGGSGGGGSGGGGSEVQLVESGGGLVQPGGSLRLSCAASGYTFTSYWLHWVRQAPGKCLEWVGMIDPSNSDTRFNPNFKDRFTISADTSKNTAYLQMNSLRAEDTAVYYCATYRSYVTPLDYWGQGTLVTVSSASTKGPSVFPLAPSSKSTSGGTAALGCLVKDYFPEPVTVSWNSGALTSGVHTFPAVLQSSGLYSLSSVVTVPSSSLGTQTYICNVNHKPSNTKVDKKVEPKSCDKTHTCPPCPAPEAAGGPSVFLFPPKPKDTLMISRTPEVTCVVVDVSHEDPEVKFNWYVDGVEVHNAKTKPREEQYNSTYRVVSVLTVLHQDWLNGKEYKCKVSNKALAAPIEKTISKAKGQPREPQVCTLPPSRDELTKNQVSLSCAVKGFYPSDIAVEWESNGQPENNYKTTPPVLDSDGSFFLVSKLTVDKSRWQQGNVFSCSVMHEALHNHYTQKSLSLSPGK
modifications: linker-payload A-05 on reduced Cys sulfhydryls (sites not given); DAR of the whole ADC approximately 8
B7: BsAb 41B (bispecific antibody, human IgG1, kappa, L234A L235A)
light: not shown
heavy: not shown
chain: B6 chain
notes: Fab-scFab-Fc (KIH) format; anti-EGFR Fab, anti-c-MET scFab; also called bispecific antibody 41B

target: T1, human c-MET (human, UniProt P08581 25-1390); test: flow cytometry on EBC-1 cells (highly express c-MET)
T1 construct: whole, on cells; also called tyrosine protein kinase Met; hepatocyte growth factor receptor
From the text: (§1) A flow cytometer (Beckman, model Cytoflex) was used to detect the interaction between anti-human EGFR/c-MET bispecific antibodies and their conjugates and human gastric cancer cells MKN45 (Nanjing Cobioer Biosciences) and human gastric cancer cells overexpressing human EGFR MKN45-EGFR (Kelun-Biotech), human lung squamous cell carcinoma EBC-1 (Nanjing Cobioer Biosciences), human lung squamous cell carcinoma EBC-1-EGFR overexpressing human EGFR (Kelun-Biotech), human non-small cell lung cancer cell HCC827 (ATCC™), and human epidermal squamous cell carcinoma cell A431 (Nanjing Cobioer Biosciences). The protocol was as follows.
(§2) The adherent cells were digested with Trypsin-EDTA solution (0.25%) (Shanghai BasalMedia) and the cell density adjusted to 4.0×10⁶ per mL. The cells were washed twice with 1% BSA and resuspended in 1% BSA solution. Then 50 μL cell suspension was added to each well of a 96-well plate (the number of cells was 2×10⁵ per well). The antibody and its conjugate were diluted with 1% BSA (final concentration 10 µg/mL, 3-fold gradient dilution, a total of 11 concentration points). Then 50 μL of the diluted antibody and ADC were added to the wells of the 96-well plate and the plate was incubated at 4° C. for 60 minutes. The wells of the 96-well plate were then washed twice with 1% BSA, 50 μL of diluted secondary antibody was added to each well, and the 96-well plate was incubated at 4° C. for 30 minutes. Then the cells were washed twice with 1% BSA, and the cells were resuspended in 200 μL of 1% BSA and subjected to flow cytometry detection.

T1 sequence (P08581 25-1390): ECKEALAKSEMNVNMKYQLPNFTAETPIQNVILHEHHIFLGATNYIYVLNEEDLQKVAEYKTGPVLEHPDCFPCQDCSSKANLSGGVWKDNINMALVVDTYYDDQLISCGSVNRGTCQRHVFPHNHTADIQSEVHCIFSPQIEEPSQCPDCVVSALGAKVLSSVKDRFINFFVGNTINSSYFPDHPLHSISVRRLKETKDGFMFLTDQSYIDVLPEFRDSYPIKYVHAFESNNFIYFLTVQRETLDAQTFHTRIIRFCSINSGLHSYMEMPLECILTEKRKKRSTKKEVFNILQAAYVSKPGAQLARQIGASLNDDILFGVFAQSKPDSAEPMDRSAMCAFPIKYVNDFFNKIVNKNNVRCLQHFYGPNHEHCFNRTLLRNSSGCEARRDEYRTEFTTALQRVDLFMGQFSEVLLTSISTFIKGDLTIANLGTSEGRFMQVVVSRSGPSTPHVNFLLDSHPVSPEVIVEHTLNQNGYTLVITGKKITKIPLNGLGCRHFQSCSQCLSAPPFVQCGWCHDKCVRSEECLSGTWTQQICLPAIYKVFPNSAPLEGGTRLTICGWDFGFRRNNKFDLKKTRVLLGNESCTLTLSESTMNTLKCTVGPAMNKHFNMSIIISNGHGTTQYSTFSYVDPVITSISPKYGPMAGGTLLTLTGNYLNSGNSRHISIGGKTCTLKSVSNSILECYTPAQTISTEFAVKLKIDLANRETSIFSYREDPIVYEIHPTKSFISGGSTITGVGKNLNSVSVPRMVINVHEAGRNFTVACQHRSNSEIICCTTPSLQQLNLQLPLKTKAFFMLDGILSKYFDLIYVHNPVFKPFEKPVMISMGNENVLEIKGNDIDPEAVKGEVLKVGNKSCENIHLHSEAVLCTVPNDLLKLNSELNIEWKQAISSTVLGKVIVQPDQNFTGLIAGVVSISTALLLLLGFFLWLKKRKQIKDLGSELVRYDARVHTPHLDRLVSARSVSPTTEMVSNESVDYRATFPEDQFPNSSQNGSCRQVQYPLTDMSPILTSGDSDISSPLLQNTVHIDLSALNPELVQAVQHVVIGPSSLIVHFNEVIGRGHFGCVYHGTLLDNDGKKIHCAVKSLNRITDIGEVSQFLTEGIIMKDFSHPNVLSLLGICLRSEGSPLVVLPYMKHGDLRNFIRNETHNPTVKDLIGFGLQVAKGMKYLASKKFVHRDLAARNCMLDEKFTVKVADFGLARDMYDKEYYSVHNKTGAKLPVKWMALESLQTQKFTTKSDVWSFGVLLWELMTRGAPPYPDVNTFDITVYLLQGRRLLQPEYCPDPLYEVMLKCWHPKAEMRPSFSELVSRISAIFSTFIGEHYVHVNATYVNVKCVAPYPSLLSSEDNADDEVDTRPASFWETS

Point of comparison: B3, EC50 1.32 nM. Against it:
- B1 — within 1.5-fold, 0.95 nM
- B2 — within 1.5-fold, 1.13 nM
- B4 — within 1.5-fold, 1.51 nM
- B5 — within 1.5-fold, 1.91 nM

target: T1, human c-MET; test: flow cytometry on MKN45 cells (highly express c-MET)
From the text: as §1, §2

Point of comparison: B3, EC50 0.34 nM. Against it:
- B6 — 2-fold higher, 0.69 nM
- B7 — 5.2-fold higher, 1.77 nM
- B1 — 4.6-fold higher, 1.58 nM
- B2 — 4-fold higher, 1.36 nM
- B4 — 3.1-fold higher, 1.06 nM
- B5 — 6.3-fold higher, 2.14 nM

target: T2, human EGFR (human, UniProt P00533 25-1210); test: flow cytometry on A431 cells (highly express EGFR)
T2 construct: whole, on cells; also called epidermal growth factor receptor; ErbB-1
From the text: as §1
as §2, with “The wells of the 96-well plate were then washed twice with 1% BSA, 50 μL of diluted secondary antibody was added to each well, and the 96-well plate was incubated at 4° C. for 30 minutes. Then the cells were washed twice with 1% BSA, and the cells were resuspended in 200 μL of 1% BSA and subjected to flow cytometry detection.” left out

Point of comparison: B6, EC50 0.48 nM. Against it:
- B7 — 2.8-fold higher, 1.34 nM

target: T1, human c-MET; test: cell-based or functional assay

Point of comparison: B1, “IC50, in vitro cell killing (CCK8) on EBC-1 cells” value 1.08 nM. Against it:
- B6 — 2.5-fold lower, 0.44 nM
- B2 — 1.6-fold lower, 0.66 nM
- B4 — 2.7-fold higher, 2.93 nM
- B5 — 1.8-fold lower, 0.59 nM

Point of comparison: B2, “IC50, in vitro cell killing (CCK8) on MKN45 cells” value 0.78 nM. Against it:
- B6 — 1.9-fold lower, 0.42 nM
- B1 — within 1.5-fold, 0.68 nM
- B4 — within 1.5-fold, 0.57 nM
- B5 — 2.4-fold lower, 0.33 nM
